In PMC10101095, “The Oxidative Stress-Induced Hypothetical Protein PG_0686 in Porphyromonas gingivalis W83 Is a Novel Diguanylate Cyclase” (Microbiology Spectrum, 2023):
Where “and” joins values, the source holds several entries; their conditions need not be identical. Equal values may be shown once.

Key:
[1] = target: the molecule itself; test: SEC; Superdex 200 10/300 GL, 100 uL of 0.2 mg/mL rPG_0686, mobile phase 0.15 M ammonium bicarbonate, 0.1 mL/min; sizes calculated against Bio-Rad 1511901 protein standard
[2] = target: the molecule itself; test: native gel or EMSA; native-PAGE of purified rPG_0686 / SEC fractions, with immunoblot

B1: recombinant PG_0686 (rPG_0686) protein of Porphyromonas gingivalis W83 (enzyme, UniProt Q7MWD6 1-517, looked up)
chain: MQVIKTNETFDSLDKSKLERMLDIKEAHREGHLTLEEAKERMKKEVGSISPEEFAAAEQLFKERDQDECQNEDVRTMLQLFEGLINPIRPDLPFGHPIDAYLRENDKAKELLDQADALLERTFIPNPWIELMETLMGYKLHFARKQNQLYSTLEQKGFDRPSTTMWTYDDHIRDEMNKAMSLLREKDYDSFPAAYKEMAIVLRDLMEKEELILYPTSLKLISDKEFEEMKHGDREIGFFLIDMPELDAPAKQSKEAHGQSFMAELGALLAKHGMGTGGQDDKAILDVAEGKLTLEQINLLFRHLPVDISFVDENELVCFYTDTKHRVFPRSKGVIGREVRNCHPPKSVHIVEEIIDKFRRGEQDRAEFWINKPGVFIYIVYVAIRDADGRFRGVMEMMQDCTRIRSLEGSRTLLTWDEEQSPAQGSKESESDTAGEDGIRPDTKLKSLLQRYPQLMDDLPTISSKFTLLRSPMAKVILPVATIKMMSERADIPSDMLIGKLESLIASYNKPDRSEEK
notes: PG_0686, hypothetical protein / diguanylate cyclase of Porphyromonas gingivalis W83; 517 amino acids, 60 kDa; the ORF of the PG_0686 gene cloned in-frame into pEXP5-NT/TOPO; domains hemerythrin (96-215), PAS10 (297-402), DUF-1858 (421-497); Number of copies in the native oligomer differs by method (SEC: decamer and pentamer; native-PAGE: octamer and tetramer); The vector pEXP5-NT/TOPO probably …
In the case of B1, the “stoichiometry N” value [1] is reported as 10 and 5 and the “stoichiometry N” value [2] is reported as 8 and 4.
